Here are results for 15 sequences from the DeepSol protein solubility set.

This series in a line: soluble on expression in E. coli; label from the status in PepcDB or PDB records.
Take “MGSDKIHHHHHHMGEAIEVAEGALWMRLPLPMKLDHVNVYAFDEGDSWTVVDTGMSSNKTRRIWEQLMAGPLGGKPVRRVVVTHHHPDHIGNAGWFQSEHGAELVTTRTAWLFARMLTLDVQESWPEETLAYYRSAGMDPEVYDTRKADRPFNFADTVYPMPLGFTRVQQGDVFRMGGRDWDIHMGNGHAPEHATLWSRDDNLVLTGDQVLSSISPNIGVYATEPEADPLAEWLEACERLAALARPEHLALGGHKLPFTRLPLRMRQLIDNHHGALERLMEFLETPKSAAECFPTLFKRTIGPGEYGLALVEAVAHVNHLYRTGQVTRTRRSDEAWVYQRR”: the “soluble on expression in E. coli” value is “not soluble”.
For “MAELYVKPGNKERGWNDPPQFSYGLQTQTGGPKRTPLTKRVAAPQDGSPRAPETSGPPPVDHPPPSSKASRPPPMGSCPATGVEPPSSPVIESETLIEDVLRPLEQALEDCHGHTKKQVCDDISRRLVLLREQWAGGKLSIPVKKRMALLVQELLHHQWDAADDIHRSLMVDYVTEVSQWMVGVKRLIAEKRSLSSEETKEEKFTVEPENQTIPGFQQPS”, the “soluble on expression in E. coli” value is recorded as “not soluble”.
Next, “MSLIPIDYLRASRKGREVRPRYLNDDKIASEVINMAKSAKTLGEFRNAVELISSDKKLVRGLAHVLEQLIEIEKIDSKLVTRTRLEVFKAASALGYPLTEEERERVFQTVAARLKMGVNEVKALFLKAYEENRLIVKAPDIQPKQLVEMYNLALIQALLFKSLYVKALLPNAPALLKGLIRAVKGLGLMYIVEINGGQLEFRFDGPVSALRQTERYGTRLAKLVPYITSAEKWEIEAQVKLGERIYVFKESGRTAPPLPKTPPHAEQFDSLVEQEFYKQVSKICHVEREPEALVVDGRVYIPDFKIGDLYVEIVGFWTPDYLKRKYEKITKVGKPLLVLVSEELAMATWKQLMPNVVVFKDRPRLSDVFKYIKPYCVNHREGHHHHHH”: “not soluble”; “MNPLKKIKDWIAEGKAGWHLAGGRSSLKQGKYKEALKEFRKALKARPNNPEILHYNAITLLKLKRPEKALECYEKILKNNPKLAEAWNNKGLVLKELGRYDEALECYEKALKINPKYAGAWNNKALVLKELGRYDEALECYEKALQINPKLADAWYNKGSVLIYLKKYKKALKCFEKAIELNPKNYRAWGTKGITLHNLKIYEEALKCYDKVLQLNPQDDKAWNNKGLVFNELGRYDESLECYEKALQINPKLAEAWNNKGVVLSELGRYEEALECYEKALEIDPEDDKTWNNKGLVLEELGKYKDALECFQKALEINPEFADAWKWKGIILEDLKKPEESLKCYKKALKLNPPKQNTMVHARKNTTKTRQTQRSTKML”: “not soluble”; “MASTNTNLQKAIDLASKAAQEDKAGNYEEALQLYQHAVQYFLHVVKYEAQGDKAKQSIRAKCTEYLDRAEKLKEYLKKKEKKPQKPVKEEQSGPVDEKGNDSDGEAESDDPEKKKLQNQLQGAIVIERPNVKWSDVAGLEGAKEALKEAVILPIKFPHLFTGKRTPWRGILLFGPPGTGKSYLAKAVATEANNSTFFSISSSDLVSKWLGESEKLVKNLFQLARENKPSIIFIDEIDSLCGSRSENESEAARRIKTEFLVQMQGVGVDNDGILVLGATNIPWVLDSAIRRRFEKRIYIPLPEAHARAAMFRLHLGSTQNSLTEADFQELGRKTDGYSGADISIIVRDALMQPVRKVQSATHFKKVRGPSRADPNCIVNDLLTPCSPGDPGAIEMTWMDVPGDKLLEPVVSMWDMLRSLSSTKPTVNEQDLLKLKKFTEDFGQEG”: “soluble”.
For “MKIDLPPLRQFLNRLLALTIRMQNVIFERFELLLSQQIETAIANGIFEAGVETLRAERFTIESCESVYTHPDTGSVTNYLKVEQVQRNNIRTAVEMLEFAAKYQGQLMVNQKSSNAAVSIPTHSIFDCDGGVVPRVLLVRPQKETRVPVEQLESSTWQQVSAEEFVTAWSREVDELPRFTTDYLHLVTGILLPIWKILPQKNSRVFRLQTSDGQKILGRVVHASDIQTVTEQLGLKNKLLSPAELEHHHHHH”, the “soluble on expression in E. coli” value is given as “not soluble”.
Consider “MHHHHHHANASETNVGPMAPRVCVVGSVNMDLTFVVDALPRPGETVLAASLTRTPGGKGANQAVAAARAGAQVQFSGAFGDDPAAAQLRAHLRANAVGLDRTVTVPGPSGTAIIVVDASAENTVLVAPGANAHLTPVPSAVANCDVLLTQLEIPVATALAAARAAQSADAVVMVNASPAGQDRSSLQDLAAIADVVIANEHEANDWPSPPTHFVITLGVRGARYVGADGVFEVPAPTVTPVDTAGAGDVFAGVLAANWPRNPGSPAERLRALRRACAAGALATLVSGVGDCAPAAAAIDAALRANRHNGS”, for which the “soluble on expression in E. coli” value was “soluble”.
Next, “MGSDKIHHHHHHMIQKGLEGVKICESSICYLDGINGRLYYRGIPVEELAEKSTFEETAYFLWYGKLPTKSELEEFKRKMADYRELPAEALGILYHLPKNLHYIDVLKIFLSIHGSMDGNDEDLREKAIRVASVFPTILAYYYRYSKGKELIRPRKDLSHVENFYYMMFGERNEKIRLLESAFILLMEQDINASTFAALVIASTLSDLYSCIVGALGALKGPLHGGASEKVPPMLEEIGSEDRVEEFVQKCLKEKRKIMGFGHRVYKTYDPRAVFLKRVLQEHFPDSKLFRIASKLEEYIVSNKIKNIYPNVDLYSSVLFEELGFPRNMFTALFATARVVGWTAHVIEYVSDNKLIRPTSEYVGPMDVEYIPIERRDENG”: “not soluble”.
Next, “MSRRKAGSAPRRVEPAPAANPDDEMEMQDLVIELKPEPDAQPQQAPRLGPFSPKEVSSAGRFGGEPHHSPGPMPAGAALLALGPRNPWTLWTPLTPNYPDRQPWTDKHPDLLTCGRCLQTFPLEAITAFMDHKKLGCQLFRGPSRGQGSEREELKALSCLRCGKQFTVAWKLLRHAQWDHGLSIYQTESEAPEAPLLGLAEVAAAVSAVVGPAAEAKSPRASGSGLTRRSPTCPVCKKTLSSFSNLKVHMRSHTGERPYACDQCPYACAQSSKLNRHKKTHRQVPPQSPLMADTSQEQASAAPPEPAVHAAAPTSTLPCSGGEGAGAAATAGVQEPGAPGSGAQAGPGGDTWGAITTEQRTDPANSQKASPKKMPKSGGKSRGPGGSCEFCGKHFTNSSNLTVHRRSHTGERPYTCEFCNYACAQSSKLNRHRRMHGMTPGSTRFECPHCHVPFGLRATLDKHLRQKHPEAAGEA”: “not soluble”; “NIQYEERVSVQADLGSQTLHVRGLIDSGNQLYDPLTKTPVMIIYIDKLEPIFGTAETMIIRNTDPLEAIEQLDDSFRFLDKMRLIPYRGVGQQNQFLLCVKPDHVTIMTKEEMISADKCLIGISTTKLSADGEFDAIIHPKMLSGKAVKH”: “not soluble”; “GPGSMRSTAELSSPLSISLPCSLSAEPPHHTLPATTANIIALRRAADPSTFTHTHTNTARPPLPAPYFRQRDSSWCSHASPHAHRHTHTYPSLSLPAPRFFFAHRYAAAALPRRLPAIMTHEFHSLFLPLAAEEQAVFADFFPTLVASSTSIQDGVAGEHSLQPTVSATLDTYSSACATSPHSPGECGSLPEVGRGAATDAQARCDAPLRSLVFAIGSARADAVIVVLRRGDVVLYGLDRLHTPPYEKCRIRPLPTTQQLMAARENARRYSNADGAASAGSWTDASCSGGVAGSRSVVNGGVEATCAALLPLHIGYCCRIPLSASFSSATPPAGGPRRGGGGGSRDERDEDVVYLRGIVGSSDGRVSLFSDTSYTLSFAAHDIPVAQVDAVLLPPCTLDRRVSTNASPTTSTRGFSSTGAGANTRTAPSGELTSPTSPQPQERLARATQRLGLVTSGNDGVVLLWRRLGDSMSPIVVVRPSTFSSRAAYAVYHPSALSALLSSWAPPSQREAAVDAELSCPPSCLLHAATSTSHTLRVRQLASISPKPTHKSLSSAARRESVEEAAPTSMSAALPGSWSATVTAIAAHDSVTLVAMGASLLSLVKLNPRSAARVWKAAESITQLVLIDSVALAVCARSGTVHVLTIHPGTGRVVRQRVYYSYKNRAIHHTSLHVASLLMTIVDVCGSTELVQLPTDVMLPCDVRLRRGEYTSGDAANVNLLASMAALRAKVCIEAIKGGSGGGVSGSVAANEAEVTGGSTSMYEANAALDQLNERLLLARYAVPEECDNFMGANVHVF”: “not soluble”.
The entry for “MGSDKIHHHHHHQIQQQSPYPKREFRGAWIQAVNGQFRGIPTEKLKQTLIDQLNSLQGAGINAIIFQVRPEADALYASQLEPWSRFLTGVQGQAPSPYWDPMQFMIDECHKRGMEFHAWINPYRVKTSLKSELSANHLYNIHPEWFVTYNNQLFFDPALPESRRHICMVVADIVSRYDVDAIHMDDYFYPYPAKGMDFPDDASFARYGGGFTNRADWRRSNVNILIQKIHETIRGLKPWVKFGISPFGIYRNEKNDPLGSKTNGLQNYDDLYADVLLWARNGWVDYNIPQIYWQIGHPAADYETLVKWWAKNTENRPLFIGQSVMNTIQNADPKNPSMNQLPRKMALERAYQTIGGSCQWPASAVVENAGKYRDALVQEYHKYPALVPVFDFMDDKAPGKVRKVKKVWTEDGYMLFWTPPKAKDEMDRAVQYVVYRFGDKEKVNIDDASHIVAVTRNNFYKLPYKDGKNKYRYVVTALDRLHNESKSVSKKVKL” is “not soluble”; for “MRIAVIDYDKCNPDKCGHFLCERVCPVNRMGGEAIIIDEENNRPIIQEASCTGCGICVHKCPFKAISIVNLPEQLEEDCVHRYGVNAFVLYRLPVVKDGMVVGIVGPNGTGKTTAVKILAGQLIPNLCCDNDSWDDVIKAFRGSELQNYFEKLKNGEIKPVVKPQYVDLLPKAVKGKVGELLKKVDETGKFEEIVKVLELEKVLEREIDQLSGGELQRVAIAAAILRKAHFYFFDEPSSYLDIRQRLNVARVIRRLADEGKAVLVVEHDLAVLDYLSDIVHIVYGEPGVYGIFSQPKGTRNGINEFLQGYLKDENVRFRPYEIKFTKLSERVEVERETLVEYPRLVKDYGSFKLEVEPGEIRKGEVIGIVGPNGIGKTTFVKMLAGVEEPTEGKVEWDLTVAYKPQYIKAEYEGTVYDLLSKIDASKLNSNFYKTELLKPLGIIDLYDKNVNELSGGELQRVAIAATLLRDADIYLLDEPSAYLDVEQRLATSRAIRHLMEKNEKTALVVEHDVLMIDYVSDRLIVFEGEPSKYGKALPPMGMREGMNRFLASVGITFRRDPDTGRPRANKEGSVKDREQKEKGEYYYTD” it is “soluble”.
For the sequence “MGSDKIHHHHHHMTCAFARTVESRFAELTPTAKRIASYMLANLDRLGLETADQIAQQTGTSGISVGRFLRSVGYRNLDDLKRELRGGADRPWMITDRLDEYRRTNGTNGTAGTQAAAIHSDDRALASSLDRELDAIRHVYRLAEEPVFAQVADRIAHADAVFILGIQSTRGISNAFSSYLEYLRPRVFYSDGQSGSYVDSLNSEFERPYCIVTDVRAYSRSARRYCQAAAERGQPFALVTDLYCPWAREWPADLLQVKTDVGQFWDSLAPLTCLFNLLITAVVDRLGPAIDRRVARNRELQHTFDQFES”, the “soluble on expression in E. coli” value is “not soluble”.
Next, “SASSDLEQLCSHVNEKIGNIKKTLSLRNCGQEPTLKTVLNKIGDEIIVINELLNKLELEIQYQEQTNNSLKELCESLEEDYKDIEHLKENVPSHLPQVTVTQSCVKGSDLDPEEPIKVEEPEPVKKPPKEQRSIKEMPFITCDEFNGVPSYMKSRLTYNQINDVIKEINKAVISKYKILHQPKKSMNSVTRNLYHRFIDEETKDTKGRYFIVEADIKEFTTLKADKKFHVLLNILRHCRRLSEVRGGGLTRYVIT”: “soluble”.
